The test system of assay [1] is YAMC-B4 cells. The assay can be described thus: Cytokine (TNF plus IFN-γ)-induced apoptosis in cultured colon epithelial cells. The assay is classed as cell-based, mouse. The following applies: NRG4 100 ng/ml, TNF 100 ng/ml plus IFN-γ 150 U/ml, 6 h, p<0.03. The text has this: (§1) Conditionally immortalized, non-transformed young adult mouse colon (YAMC) epithelial cells were provided by Dr. Robert Whitehead (Whitehead, R. H., VanEeden, P. E., Noble, M. D., Ataliotis, P., and Jat, P. S. (1993) Proc Natl Acad Sci USA 90, 587-591). These cells express low levels of endogenous ErbB4; YAMC-B4 cells expressing a human ErbB4 construct were generated as previously described (Frey, M. R., Edelblum, K. L., Mullane, M. T., Liang, D., and Polk, D. B. (2009) Gastroenterology 136, 217-226). […]
Cultured mouse colonic epithelial cells expressing ErbB4 (YAMC-B4) cells were exposed to TNF (100 ng/ml) plus interferon (IFN)-γ (150 units/ml), with or without NRG4 (100 ng/ml). After 6 h, the cells were fixed and apoptosis was assessed by immunofluorescence analysis for cleaved caspase-3. When the YAMC-B4 cells were given 100 ng/ml NRG4, cells were protected from apoptosis induced by the 6 h exposure to the cytokine cocktail containing TNF (100 ng/ml) and IFN-γ (150 U/ml), as measured by immunofluorescence analysis for cleaved caspase-3 (FIG. 1B; 2.7-fold decrease with cytokines plus NRG4 vs. cytokines alone, p<0.03).

The subject of assay [2] is EGFR, ErbB2, ErbB3, and ErbB4. Put plainly: ErbB receptor phosphorylation by western blot with phospho-specific antibodies. The following applies: YAMC-B4 cells (human ErbB4 construct); 10 min; HRG-1β 100 ng/ml, NRG4, EGF 10 ng/ml. The format is cell-based, mouse.
Description: as §1
(§2) Cell lysates were extracted in modified RIPA buffer as previously described (Frey, M. R., Dise, R. S., Edelblum, K. L., and Polk, D. B. (2006) Embo J 25, 5683-5692), cleared by centrifugation, and boiled in Laemmli sample buffer. Samples were separated on SDS-polyacrylamide gels (6-10% as appropriate), blotted on PVDF membranes, and subjected to quantitative immunoblot using the Li-Cor Odyssey infrared detection system. Equal loading was monitored by immunoblots for actin and at least one additional protein.
Phosphorylation of EGFR, ErbB2, ErbB3, and ErbB4 was determined by western blot analysis of cell lysates using phospho-specific antibodies. […]
On the technique in general: In western blotting, separated proteins are transferred to a membrane and probed.

The test system of assay [3] is colon epithelial cells. Put plainly: Cytokine-induced colon epithelial apoptosis in vivo. Set-up: species or system mouse. Conditions: C57Bl/6 mice, NRG4 100 μg/kg i.p., TNF 250 μg/kg plus IFN-γ 250 U/g, 24 h. The protocol: All animal use was approved and monitored by the Children's Hospital Los Angeles Institutional Animal Care and Use Committee. […] Cytokines, growth factors, and inhibitors were given by intraperitoneal injection. 24 h after injections, mice were sacrificed and colons collected either for fixation and embedding or for epithelial lysates. For the latter, colons were incubated in Cell Recovery Solution (BD Biosciences, San Jose, Calif.) for 1 h at 4° C.; crypts were released by vigorous shaking and collected by centrifugation, similar to as previously described (Whitehead, R. H., and Robinson, P. S. (2009) American journal of physiology. Gastrointestinal and liver physiology 296, G455-460). Collected crypts were lysed and processed similar to cultured cells as below. […]
For apoptosis analysis in vivo, mice were injected i.p. with PBS/vehicle, TNF (250 μg/kg) plus IFN-γ (250 units/g), NRG4 (100 μg/kg), or NRG4 plus TNF and IFN-γ. […] Apoptosis was detected by in situ oligo ligation (ISOL; EMD Millipore, Billerica, Mass.) staining for DNA fragmentation on sections of paraffin-embedded tissue, and by cleaved caspase-3 western blot on homogenates.
24 hours after injections, colons were harvested. Apoptosis assessed by Western blot analysis for cleaved caspase-3 on isolated epithelial cells determined that NRG4 blocked cytokine-induced apoptosis in vivo (FIG. 3A, B; 3.6-fold decrease, p=0.012).

Assay [4] deals with YAMC-B4 cells. The assay can be described thus: EdU proliferation assay. The format is cell-based, mouse. The following applies: 24 h stimulation. The protocol:
(§3) Proliferative index in fixed colon specimens was assessed by immunohistochemical stain for Ki-67. In vitro, cells were exposed to vehicle or growth factors for 24 h, then labeled with 5-ethynyl-2-deoxyuridine (EdU) for 2 h and fixed. Nuclei were marked with DAPI, and incorporated EdU was detected using a Click-iT EdU kit (Invitrogen).
(§4) Most ErbB ligands stimulate multiple cellular processes, including proliferation and migration, in colon epithelial cells (Frey, M. R., Golovin, A., and Polk, D. B. (2004) J Biol Chem 279, 44513-44521). To determine if NRG4 is similarly broad in its cellular effects, we subjected YAMC-B4 cells to proliferation assays in the presence of NRG4. […] In vivo, the number of Ki67-positive nuclei per crypt in PBS vs. NRG4-injected mice was not altered 24 h post-injection (FIG. 4B).

Assay [5] relates to colon crypts. Put plainly: Ki-67 proliferative index in colon in vivo. Set-up: species or system mouse. Conditions: 24 h post-injection. The method, then:
as §3, §4

Assay [6] deals with YAMC-B4 cells. The assay can be described thus: Cell migration/restitution (modified scratch) assay. The assay is classed as cell-based, mouse. Conditions: 8 h. The method, then: Cells grown on fibronectin-coated plates were subjected to multiple circular wounds with a rotating silicone probe as previously described (Corredor, J., Yan, F., Shen, C. C., Tong, W., John, S. K., Wilson, G., Whitehead, R., and Polk, D. B. (2003) American journal of physiology. Cell physiology 284, C953-961). Cultures were photographed immediately and 8 h after wounding; % closure was determined by measuring wounds in Image.
To test the potential effect of NRG4-ErbB4 signaling on cell motility, we used a modified scratch assay for restitution/migration (Corredor, J., Yan, F., Shen, C. C., Tong, W., John, S. K., Wilson, G., Whitehead, R., and Polk, D. B. (2003) American journal of physiology. Cell physiology 284, C953-961). Over an 8 h period, NRG4 had no effect on the rate at which YAMC-B4 cells moved into the denuded area of a culture plate (FIG. 4C), while in contrast EGF caused a 54% increase in migration over control.

Assay [7] is described as follows: Dextran sodium sulfate-induced acute murine colitis. Conditions: C57/BL6 mice, NRG4 100 μg/kg injected daily vs PBS. The format is in vivo, mouse.
Description: 6-8 week-old male C57/BL6 mice were given 3% DSS in drinking water for 7 days and injected daily with either PBS or NRG4 (100 μg/kg). Weight-loss was monitored over the course of the experiment (FIG. 4D(i)). On day 7, mice were sacrificed; colons were excised, rolled and fixed. H&E sections were scored by a pathologist blind to the experimental conditions using a scoring system adapted from that of Dielman et al. (Dieleman, L. A., et al., Chronic experimental colitis induced by dextran sulphate sodium (DSS) is characterized by Th1 and Th2 cytokines. Clinical and experimental immunology, 1998. 114(3): p. 385-91) (FIG. 4D(ii)).
Assay [8] deals with Akt. Put plainly: Akt phosphorylation in whole cell lysates by western blot. The assay is classed as cell-based, mouse. Conditions: YAMC-B4 cells; NRG4 100 ng/ml, 10 min.
Description: as §2
(§5) To identify signaling pathways which could be involved in NRG4-stimulated cell survival, we exposed YAMC-B4 cells to NRG4 or EGF and prepared whole cell lysates for western blot analysis. […] Furthermore, COX-2 expression, which is induced by either HRG-1β or EGF after 6 h exposure, and is required for cell survival induced by ErbB4-EGFR dimers (Frey, M. R., Hilliard, V. C., Mullane, M. T., and Polk, D. B. (2010) Laboratory Investigation 90, 1415-1424), was not induced by NRG4. Thus, NRG4 promotes cell survival through pathways at least partly distinct from those activated by other ligands.

Assay [9] concerns ERK MAPK. The assay can be described thus: ERK MAPK phosphorylation in whole cell lysates by western blot. Conditions: YAMC-B4 cells; NRG4 100 ng/ml, 10 min. The assay is classed as cell-based, mouse.
Description: as §2, §5

Assay [10] concerns COX-2. Put plainly: COX-2 expression in YAMC-B4 cells. The format is cell-based, mouse. The following applies: 6 h exposure. The method, then: as §5
Assay [11] relates to Akt. The assay can be described thus: Akt phosphorylation in colon epithelium of injected mice. The assay is classed as in vivo, mouse. The following applies: mice injected with NRG4, with or without TNF plus IFN-γ; 24 h. The method, then: All animal use was approved and monitored by the Children's Hospital Los Angeles Institutional Animal Care and Use Committee. […] Cytokines, growth factors, and inhibitors were given by intraperitoneal injection. 24 h after injections, mice were sacrificed and colons collected either for fixation and embedding or for epithelial lysates. For the latter, colons were incubated in Cell Recovery Solution (BD Biosciences, San Jose, Calif.) for 1 h at 4° C.; crypts were released by vigorous shaking and collected by centrifugation, similar to as previously described (Whitehead, R. H., and Robinson, P. S. (2009) American journal of physiology. Gastrointestinal and liver physiology 296, G455-460). Collected crypts were lysed and processed similar to cultured cells as below. For murine colitis, IL-10^−/− mice on C57Bl/6 background were maintained unchallenged until 32-36 weeks of age, at which point knockout mice but not wild-type animals have extensive inflammatory cytokine-driven colitis (Kuhn, R., Lohler, J., Rennick, D., Rajewsky, K., and Muller, W. (1993) Cell 75, 263-274).
Tissues and cells were fixed with 4% paraformaldehyde (Electron Microscopy Sciences, Hatfield, Pa.). […] For immunofluorescence, slides were mounted with Vectashield medium containing DAPI (Vector Laboratories, Burlingame, Calif.). […]

In assay [12] the test system is rat intestinal epithelial cells. Put plainly: Cronobacter sakazakii-induced apoptosis in cultured intestinal epithelial cells. The assay is classed as cell-based. The source says:
NRG4 inhibits CS-induced cell death.

Assay [13] in a line: Experimental necrotizing enterocolitis (NEC) model.

B1: Neuregulin-4 (protein, UniProt Q8WWG1 1-62, looked up)
extracellular domain: MPTDHEEPCGPSHKSFCLNGGLCYVIPTIPSPFCRCVENYTGARCEEVFLPGSSIQTKSNLF
modifications: ectodomain
notes: ErbB4-specific ligand
In the case of B1, in [1], the “decrease in apoptosis (cleaved caspase-3 immunofluorescence), cytokines plus NRG4 vs. cytokines alone” value is recorded as 2.7 fold. Also, the “phosphorylation of EGFR, ErbB2, ErbB3, and ErbB4” value in [2] was “activated only ErbB4”. Also, the “decrease in apoptosis, ISOL staining on fixed colon sections” value in assay [3] (p<0.0001) was 3.1 fold. Moreover, the “decrease in cytokine-induced apoptosis, cleaved caspase-3 western blot on isolated epithelial cells” value in assay [3] (p=0.012) came to 3.6 fold. Also, the “cellular uptake of EdU (proliferation) vs. control, in words” value in assay [4] was “not different from control”. Besides, the “number of Ki67-positive nuclei per crypt, PBS vs. NRG4-injected mice” value in assay [5] is “not altered”. Besides, the “rate at which cells moved into the denuded area (migration), in words” value in [6] is recorded as “no effect”. Further, the colon shortening entry in assay [7] (3% DSS 7 days) is listed as “reduces”. Besides, in [7] (3% DSS 7 days, blinded H&E score), the “histologically detectable colonic damage” value is “reduces”. For the same molecule, the weight loss result in assay [7] (3% DSS in drinking water 7 days) is reported as “reduces”. In addition, the “phosphorylation of Akt” value in [8] is listed as “resulted in phosphorylation of Akt”. The “phosphorylation of ERK MAPK” value in assay [9] is listed as “not ERK MAPK”. Besides, the COX-2 expression entry in assay [10] is listed as “not induced”. Moreover, in assay [11], the “Akt phosphorylation in colon epithelial cells versus controls (western blot, immunofluorescence)” value is “increased Akt phosphorylation”. Also, in assay [12], the “Cronobacter sakazakii induced apoptosis” value is “attenuates”. The “protection of the small intestine” value in assay [13] (formula feeding/hypoxia model of necrotizing enterocolitis) is given as “protective”. Moreover, the “survival of rat pups” value in assay [13] (hypoxia/hypothermia model of NEC in rat pups, given by gavage with each feed) is “survive longer”.
